This is an account of results in the supplement of paper PMC10567573.

The labels stand for the following.
B1: HNF4A (parent)
chain: RFSRQCVVDKDKRNQCRYCRLKKC
B2: C10orf62 (parent)
chain: MLWVQRKRRRKETSECPSDKDKSP
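Also: lentivirally expressed fusions sorted by FACS into six bins by GFP to DsRed ratio, PSI derived from sequencing read proportions per bin multiplied by bin number.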

One data set covers variants of B1. In words: protein stability index of a GFP-peptide fusion (GPS, HEK-293T) (PSI 1-6); higher = more stable. The note with it: c terminus: a fixed tail appended.
As for RFSRQCVVDKDKRNQCRYVRLKKC, the protein stability index was 2.95.
Turning to RFSRQCVVDKDKRNQCRYNRLKKC, the protein stability index came to 3.71.
In the case of RFSRQCVVDKDKRNQCRYWRLKKC, the protein stability index came to 2.46.
The same measure, in the same setting: next, RFSRQCVVDKDKRNQCRYTRLKKC: 2.99.

The variants in the next data set derive from B2. The data set is described as above. The note with it: c terminus: a fixed tail appended.
For MLWVHRKRRRKETSECPSDKDKSP, the protein stability index was 2.97.
Still for that read-out and setting: the result for MLWVQRYRRRKETSECPSDKDKSP reads 1.57; that for MLWVQRTRRRKETSECPSDKDKSP, 3.15.
Still for that read-out and setting: the result for MLWVQRARRRKETSECPSDKDKSP reads 3.08; that for MLWVQRCRRRKETSECPSDKDKSP, 2.31; that for MLWVQRKRQRKETSECPSDKDKSP, 3.2.
Same read-out and setting: the result for MLWVQRKRGRKETSECPSDKDKSP reads 3.2; that for MLWVQRKRRRKETSKCPSDKDKSP, 2.74.
For MLWVQRKRRRKETSICPSDKDKSP, the protein stability index stood at 1.92.
MLWVQRKRRRKETSDCPSDKDKSP: the protein stability index is 3.26.
Same read-out and setting: the result for MLWVQRKRRRKETSRCPSDKDKSP reads 2.54; that for MLWVQRKLRRKETSECPSDKDKSP, 2.51; that for MLWVQRKERRKETSECPSDKDKSP, 5.08.
Still for that read-out and setting: the result for MLWVQRKTRRKETSECPSDKDKSP reads 2.95; that for MLWFQRKRRRKETSECPSDKDKSP, 2.94; that for MLWTQRKRRRKETSECPSDKDKSP, 2.73.
As to MLWVQRKRRRKETSECPRDKDKSP, the protein stability index turned out to be 3.21.
As to MLWVQRKRRRKETSECPCDKDKSP, the protein stability index is 2.77.
Same read-out and setting: the result for MLWVQRKRRRKETSECPGDKDKSP reads 3.58; that for MLWVQRKRRRKETSECPVDKDKSP, 2.9; that for MLWVQRKRRRKETSECPSDCDKSP, 3.52.
For the variant MLWVQRKRRRKETSECPSDFDKSP, the protein stability index was determined as 2.12.
On the same count and under the same terms, next, MLWVQRKRRRKETSECPSDADKSP: 2.74.
On the same count and under the same terms, next, MLWVQRKRRRKETSECPSDQDKSP: 2.46; MLKVQRKRRRKETSECPSDKDKSP: 4.18.
As for MLFVQRKRRRKETSECPSDKDKSP, the protein stability index is 3.25.
For MLMVQRKRRRKETSECPSDKDKSP, the protein stability index is 3.46.
On the same count and under the same terms, the result for MLPVQRKRRRKETSECPSDKDKSP reads 5.09; that for MLNVQRKRRRKETSECPSDKDKSP, 4.66; that for MLTVQRKRRRKETSECPSDKDKSP, 4.73.
On the same count and under the same terms, next, MLWVQRKRRRKHTSECPSDKDKSP: 3.16; MLWVQRKRRRKATSECPSDKDKSP: 3.13; MLWVQRKRRRKRTSECPSDKDKSP: 3.7.
As for MLWVQRKRRRKEYSECPSDKDKSP, the protein stability index amounted to 2.07.
In the case of MLWVQRKRRRKESSECPSDKDKSP, the protein stability index is 2.25.
With MLWVQRKRRRKEWSECPSDKDKSP, the protein stability index came to 2.75.
Still for that read-out and setting: the result for MLWVQRKRRRKELSECPSDKDKSP reads 3.4; that for MLWVQRKRRRKEHSECPSDKDKSP, 3.39.
The same measure, in the same setting: next, MLWVQDKRRRKETSECPSDKDKSP: 3.9; MLWVQMKRRRKETSECPSDKDKSP: 3.49.
Same read-out and setting: the result for MLWVQLKRRRKETSECPSDKDKSP reads 3.11; that for MLWVQIKRRRKETSECPSDKDKSP, 3.21; that for MLWVQRKRRRKETFECPSDKDKSP, 3.12.
In the case of MLWVQRKRRRKETIECPSDKDKSP, the protein stability index worked out at 2.74.
Take MLWVQRKRRRKETVECPSDKDKSP: the protein stability index worked out at 3.14.
The same measure, in the same setting: next, MLWVQRKRRRKETSEYPSDKDKSP: 3.1; MLWVQRKRRRKETSERPSDKDKSP: 3.35; MLWVQRKRRRKETSEPPSDKDKSP: 2.16.
On the same count and under the same terms, next, MLWVQRKRRRKETSECPSDKDKSK: 2.16; MLWVQRKRRRKETSECPSDKDKSQ: 3.54; MLWVQRKRRRKETSECPSDKDKSY: 2.57.
As to MLWVQRKRRRKETSECPSDKDKSF, the protein stability index came out at 2.46.
On the same count and under the same terms, next, MLWVQRKRRRKETSECPSDKDKSM: 2.46.
Still for that read-out and setting: the result for MLWVQRKRRRKETSECPSDKDKSI reads 2.35; that for MLWVQRKRRRKETSECPSDKDKSH, 3.31.
With MLWVQRKRRRKETSECPSDKDKSL, the protein stability index turned out to be 2.37.
Same read-out and setting: next, MLWVQRKRRFKETSECPSDKDKSP: 2.33.
On the same count and under the same terms, next, MLWVQRKRREKETSECPSDKDKSP: 3.86; MLWVQRKRRAKETSECPSDKDKSP: 3.85; MLWVQRKRRRIETSECPSDKDKSP: 2.9.
Same read-out and setting: next, MLWVQRKRRRTETSECPSDKDKSP: 2.73; MLWVQRKRRRHETSECPSDKDKSP: 2.72.
For the variant MLWVQRKRRRKETSECPSDKDCSP, the protein stability index turned out to be 2.32.
For the variant MLWVQRKRRRKETSECPSDKDISP, the protein stability index turned out to be 2.61.
Same read-out and setting: the result for LLWVQRKRRRKETSECPSDKDKSP reads 2.3; that for VLWVQRKRRRKETSECPSDKDKSP, 3.29; that for FLWVQRKRRRKETSECPSDKDKSP, 2.98.
Still for that read-out and setting: the result for ALWVQRKRRRKETSECPSDKDKSP reads 2.93; that for TLWVQRKRRRKETSECPSDKDKSP, 3.65.
Same read-out and setting: next, KLWVQRKRRRKETSECPSDKDKSP: 3.53; PLWVQRKRRRKETSECPSDKDKSP: 2.83.
Regarding MLWVQRKRRRKETSECPSDKIKSP, the protein stability index came to 2.32.
On the same count and under the same terms, the result for MLWVQRKRRRKETSECPSDKGKSP reads 3.36; that for MLWVQRKRRRKETSECPSDKAKSP, 2.64.
Consider MLWVQRKRRRKETSECPSDKNKSP, for which the protein stability index is 3.44.
As for MLWVQRKRRRKETSECFSDKDKSP, the protein stability index stood at 2.51.
Same read-out and setting: the result for MLWVQRKRRRKETSECSSDKDKSP reads 2.92; that for MLWVQRKRRRKETSECNSDKDKSP, 3.23.
Regarding MLWVQRKRRRKETSECQSDKDKSP, the protein stability index turned out to be 3.36.
The same measure, in the same setting: the result for MLWVQRKRRRKETSECESDKDKSP reads 2.41.
The same measure, in the same setting: next, MLWVQRKRRRKETSECPSNKDKSP: 2.92.
Same read-out and setting: next, MLWVQRKRRRKETSECPSQKDKSP: 2.65; MLWVQRKRRRKETSECPSYKDKSP: 2.99.
For MLWVQRKRRRKETSECPSMKDKSP, the protein stability index stood at 3.44.
With MLWVQRKRRRKETSECPSVKDKSP, the protein stability index worked out at 2.63.
Still for that read-out and setting: the result for MLWVQRKRRRKETSECPSDKDKEP reads 2.48; that for MLWVQRKRRRKETSECPSDKDKVP, 3.58.
Still for that read-out and setting: the result for MLWVQRKRRRKETSECPSDKDKFP reads 2.5.
On the same count and under the same terms, the result for MPWVQRKRRRKETSECPSDKDKSP reads 4.59.
Turning to MCWVQRKRRRKETSECPSDKDKSP, the protein stability index came to 2.87.
